Laboratory results: publication PMC5349851, “Combinatorial bZIP dimers display complex DNA-binding specificity landscapes”

Legend:
[1] = biological target: T1, ATF3;CEBPG (human;human, UniProt P18847;P53567 ;, |); assay: EMSA-FRET; heterodimer; EMSA-FRET: 50 nM each labeled protein, 10 nM DNA, 50 mM potassium phosphate pH 7.4, 150 mM KCl, 0.1% BSA, 0.1% Tween-20, 5 ng/ul poly(dI-dC), 0.5 mM TCEP; 37 C; details: protein: recombinant;recombinant; fluorescein or TAMRA; chain copies: 2;2; label: 5' TYE 665; blunt
T1 sequence 1: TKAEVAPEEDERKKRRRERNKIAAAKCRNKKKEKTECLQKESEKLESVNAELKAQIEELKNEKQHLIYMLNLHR
T1 sequence 2: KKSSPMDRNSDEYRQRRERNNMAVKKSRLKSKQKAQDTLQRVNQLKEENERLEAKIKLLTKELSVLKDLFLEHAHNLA

[2] = biological target: T2, CEBPG (human, UniProt P53567); assay: EMSA-FRET; homodimer; EMSA-FRET: 50 nM each labeled protein, 10 nM DNA, 50 mM potassium phosphate pH 7.4, 150 mM KCl, 0.1% BSA, 0.1% Tween-20, 5 ng/ul poly(dI-dC), 0.5 mM TCEP; 37 C; details: protein: recombinant; fluorescein or TAMRA; chain copies: 2; label: 5' TYE 665; blunt
T2 sequence: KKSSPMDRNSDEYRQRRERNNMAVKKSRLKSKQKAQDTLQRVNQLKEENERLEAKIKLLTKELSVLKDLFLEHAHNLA

[3] = biological target: BATF3;CEBPA (human;human, UniProt Q9NR55;P49715 ;, |); assay: EMSA-FRET; heterodimer; EMSA-FRET: 50 nM each labeled protein, 10 nM DNA, 50 mM potassium phosphate pH 7.4, 150 mM KCl, 0.1% BSA, 0.1% Tween-20, 5 ng/ul poly(dI-dC), 0.5 mM TCEP; 37 C; details: protein: recombinant;recombinant; fluorescein or TAMRA; chain copies: 2;2; label: 5' TYE 665; blunt
Sequence of BATF3;CEBPA (P49715 273-345, one chain of several): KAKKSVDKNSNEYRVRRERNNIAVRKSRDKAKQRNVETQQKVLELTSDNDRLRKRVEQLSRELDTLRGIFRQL

[4] = biological target: ATF3;CEBPA (human;human, UniProt P18847;P49715 ;, |); assay: as above; details: protein: recombinant;recombinant; fluorescein or TAMRA; chain copies: 2;2; label: 5' TYE 665; blunt
Sequence of ATF3;CEBPA (P49715 273-345, one chain of several): as above

[5] = biological target: T3, JUN (human, UniProt P05412); assay: EMSA-FRET; homodimer; no detectable affinity; EMSA-FRET: 50 nM each labeled protein, 10 nM DNA, 50 mM potassium phosphate pH 7.4, 150 mM KCl, 0.1% BSA, 0.1% Tween-20, 5 ng/ul poly(dI-dC), 0.5 mM TCEP; 37 C; details: protein: recombinant; fluorescein or TAMRA; chain copies: 2; label: 5' TYE 665; blunt
T3 sequence (P05412 243-316): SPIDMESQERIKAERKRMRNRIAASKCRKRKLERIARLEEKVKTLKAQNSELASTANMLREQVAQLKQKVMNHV

[6] = biological target: T4, BATF3 (human, UniProt Q9NR55); assay: EMSA-FRET; homodimer; EMSA-FRET: 50 nM each labeled protein, 10 nM DNA, 50 mM potassium phosphate pH 7.4, 150 mM KCl, 0.1% BSA, 0.1% Tween-20, 5 ng/ul poly(dI-dC), 0.5 mM TCEP; 37 C; details: protein: recombinant; fluorescein or TAMRA; chain copies: 2; label: 5' TYE 665; blunt
T4 sequence: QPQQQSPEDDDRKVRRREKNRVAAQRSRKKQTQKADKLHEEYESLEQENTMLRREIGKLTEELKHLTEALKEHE

[7] = biological target: T5, BATF3;JUN (human;human, UniProt Q9NR55;P05412 ;, |); assay: EMSA-FRET; heterodimer; EMSA-FRET: 50 nM each labeled protein, 10 nM DNA, 50 mM potassium phosphate pH 7.4, 150 mM KCl, 0.1% BSA, 0.1% Tween-20, 5 ng/ul poly(dI-dC), 0.5 mM TCEP; 37 C; details: protein: recombinant;recombinant; fluorescein or TAMRA; chain copies: 2;2; label: 5' TYE 665; blunt
T5 sequence (P05412 243-316, one chain of several): as the sequence (P05412 243-316) above

[8] = biological target: T6, XBP1 (human, UniProt P17861); assay: EMSA-FRET; homodimer; comparable to CRE; EMSA-FRET: 50 nM each labeled protein, 10 nM DNA, 50 mM potassium phosphate pH 7.4, 150 mM KCl, 0.1% BSA, 0.1% Tween-20, 5 ng/ul poly(dI-dC), 0.5 mM TCEP; 37 C; details: protein: recombinant; fluorescein or TAMRA; chain copies: 2; label: 5' TYE 665; blunt
T6 sequence: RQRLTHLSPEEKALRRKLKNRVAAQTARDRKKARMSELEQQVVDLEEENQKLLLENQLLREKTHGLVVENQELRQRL

[9] = biological target: T7, ATF2;BATF3 (human;human, UniProt P15336;Q9NR55 ;, |); assay: EMSA-FRET; heterodimer; comparable to CRE; EMSA-FRET: 50 nM each labeled protein, 10 nM DNA, 50 mM potassium phosphate pH 7.4, 150 mM KCl, 0.1% BSA, 0.1% Tween-20, 5 ng/ul poly(dI-dC), 0.5 mM TCEP; 37 C; details: protein: recombinant;recombinant; fluorescein or TAMRA; copies: 1;1; label: 5' TYE 665; blunt
T7 sequence 1: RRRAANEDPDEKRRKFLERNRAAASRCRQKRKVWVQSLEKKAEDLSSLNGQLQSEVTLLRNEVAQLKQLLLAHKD
T7 sequence 2: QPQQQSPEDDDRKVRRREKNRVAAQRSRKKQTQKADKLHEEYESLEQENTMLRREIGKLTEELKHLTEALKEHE

[10] = biological target: T6, XBP1; assay: EMSA-FRET; homodimer; comparable to CRE-L; EMSA-FRET: 50 nM each labeled protein, 10 nM DNA, 50 mM potassium phosphate pH 7.4, 150 mM KCl, 0.1% BSA, 0.1% Tween-20, 5 ng/ul poly(dI-dC), 0.5 mM TCEP; 37 C; details: protein: recombinant; fluorescein or TAMRA; chain copies: 2; label: 5' TYE 665; blunt
[11] = biological target: T7, ATF2;BATF3; assay: EMSA-FRET; heterodimer; comparable to CRE-L; EMSA-FRET: 50 nM each labeled protein, 10 nM DNA, 50 mM potassium phosphate pH 7.4, 150 mM KCl, 0.1% BSA, 0.1% Tween-20, 5 ng/ul poly(dI-dC), 0.5 mM TCEP; 37 C; details: protein: recombinant;recombinant; fluorescein or TAMRA; copies: 1;1; label: 5' TYE 665; blunt
[12] = biological target: T5, BATF3;JUN; assay: as above; details: protein: recombinant;recombinant; fluorescein or TAMRA; chain copies: 2;2; label: 5' TYE 665; blunt
[13] = biological target: T8, ATF3 (human, UniProt P18847); assay: EMSA-FRET; homodimer; EMSA-FRET: 50 nM each labeled protein, 10 nM DNA, 50 mM potassium phosphate pH 7.4, 150 mM KCl, 0.1% BSA, 0.1% Tween-20, 5 ng/ul poly(dI-dC), 0.5 mM TCEP; 37 C; details: protein: recombinant; fluorescein or TAMRA; chain copies: 2; label: 5' TYE 665; blunt
T8 sequence: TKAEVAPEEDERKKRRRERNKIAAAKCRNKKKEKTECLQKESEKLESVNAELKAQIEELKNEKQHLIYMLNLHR

[14] = biological target: T3, JUN; assay: as above; details: protein: recombinant; fluorescein or TAMRA; chain copies: 2; label: 5' TYE 665; blunt

B1: CRE/CAAT (dsDNA)
DNA 1: GAGTCCATGACGCAATCCGTAG
DNA 2: CTACGGATTGCGTCATGGACTC
B1: binds [1].

B2: CAAT (dsDNA)
DNA 1: GAGTCCATTGCGCAATCCGTAG
DNA 2: CTACGGATTGCGCAATGGACTC
B2: binds [2].

B3: CREA/CAAT (CRE-L-CAAT) (dsDNA)
DNA 1: GAGTCCGCCACGCAATCCGTAG
DNA 2: CTACGGATTGCGTGGCGGACTC
B3: binds [3].

B4: AP1/CAAT (TRE-CAAT) (dsDNA)
DNA 1: GAGTCCATGAGCAATCCGTAG
DNA 2: CTACGGATTGCTCATGGACTC
B4: binds [4].

B5: CRE-L (dsDNA)
DNA 1: GAGTCCATGACGTGGCCCGTAG
DNA 2: CTACGGGCCACGTCATGGACTC
B5: no binding [5]; no binding [6]; binds [7]. B5: binds [8]; binds [9].

B6: CRE (dsDNA)
DNA 1: GAGTCCATGACGTCATCCGTAG
DNA 2: CTACGGATGACGTCATGGACTC
B6: binds [10]; binds [11]; binds [12]. B6: binds [6]; binds [13]; binds [14].
